Here are results for 9 molecules from patent publication US20160130329A1 (UNIVERSITY OF CHICAGO, published 2016).

Numbering of substitutions follows the chain as printed. Where no end group is shown, it is not given here. [ ]: non-standard residue; d: D form. Lys(Me3) = C[N+](C)(C)CCCC[C@H](N)C(=O)O

The chains are these.
T1: H3K4me3 peptide (also: biotinylated, site not given here)
T1 peptide: ART[Lys(Me3)]QTARKSTGGYCD

T2: H3K27me3 peptide (trimethyl-lysine at K27 (histone H3 numbering); biotinylated through the GYCD tag)
T2 peptide: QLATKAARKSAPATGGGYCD

T3: H4K20me3 peptide (trimethyl-lysine at K20 (histone H4 numbering); biotinylated through the GYCD tag)
T3 peptide: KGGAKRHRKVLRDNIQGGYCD

B1: 20F78 (scFv)
scFv: EVQLVETGGGVVQPGRSLRLSCTASGFTFRDYWMSWVRQAPGKGLEWVADINPDGITRYYIDAVKGRFTISRDNAKSSLYLQMNSLGAEDTAVYYCAREFPNNYGWHFDLWGRGTLVTVSSSYVLTQPPSVSVAPGQTARITCGGTNIDHRVPVHWYQQRPGQAPLVVVYAYSSRPSGIPERFSGSNSGNTATLTISRVEAGDEADYYCQVWDDSINAYVFGTGTKVTVL
B2: 20F94 (scFv)
scFv: EVQLVETGGGVVQPGRSLRLSCTASGFTFRDYWMSWVRQAPGKGLEWVADINPDGITRYYIDAVKGRFTISRDNAKSSLYLQMNSLGAEDTAVYYCAREFPYINIWHFDLWGRGTLVTVSSSYVLTQPPSVSVAPGQTARITCGGTNIADYTTVHWYQQRPGQAPLVVVYANSARPSGIPERFSGSNSGNTATLTISRVEAGDEADYYCQVWDDSINAYVFGTGTKVTVL
B3: 20F109 (scFv)
scFv: EVQLVETGGGVVQPGRSLRLSCTASGFTFRDYWMSWVRQAPGKGLEWVADINPDGITRYYIDAVKGRFTISRDNAKSSLYLQMNSLGAEDTAVYYCAREFHPGRYDWHFDLWGRGTLVTVSSSYVLTQPPSVSVAPGQTARITCGGTNISSSSVHWYQQRPGQAPLVVVYDDNYRPSGIPERFSGSNSGNTATLTISRVEAGDEADYYCQVWDDSINAYVFGTGTKVTVL
B4: 20F87 (scFv)
scFv: EVQLVETGGGVVQPGRSLRLSCTASGFTFRDYWMSWVRQAPGKGLEWVADINPDGITRYYIDAVKGRFTISRDNAKSSLYLQMNSLGAEDTAVYYCAREFYGSWHFDLWGRGTLVTVSSSYVLTQPPSVSVAPGQTARITCGGTNISHSSGDVHWYQQRPGQAPLVVVYYSYARPSGIPERFSGSNSGNTATLTISRVEAGDEADYYCQVWDDSINAYVFGTGTKVTVL
B5: 36H1 (scFv)
scFv: EVQLVETGGGVVQPGRSLRLSCTASGFTFRDYWMSWVRQAPGKGLEWVADISKEGKYMYYLDAVKGRFTISRDNAKSSLYLQMNSLGAEDTAVYYCARDLNYGAGWHFDLWGRGTLVTVSSSYVLTQPPSVSVAPGQTARITCGGTNIGDISVHWYQQRPGQAPLVVVYDDSDRPSGIPERFSGSNSGNTATLTISRVEAGDEADYYCQVWDDSINAYVFGTGTKVTVL
B6: 36H2 (scFv)
scFv: B5 scFv with Y32H
B7: 36H4 (scFv)
scFv: B5 scFv with Y32H, L110V
B8: 36H5 (scFv)
scFv: B5 scFv with M34V
B9: 4H3 (scFv)
scFv: EVQLVETGGGVVQPGRSLRLSCTASGFTFRDNWMSWVRQAPGKGLEWVADIAEDGKAMYYIDAVKGRFTISRDNAKSSLYLQMNSLGAEDTAVYYCARVFSRGYGWHFDLWGRGTLVTVSSSYVLTQPPSVSVAPGQTARITCGGTNIGDISVHWYQQRPGQAPLVVVYDDSDRPSGIPERFSGSNSGNTATLTISRVEAGDEADYYCQVWDDSINAYVFGTGTKVTVL

The target of one assay is T1, H3K4me3 peptide. Kind of assay: phage ELISA. On the technique in general: ELISA stands for enzyme-linked immunosorbent assay.
With B1, the binding result is “no binding (tested: 100 nM peptide)”.
For the molecule B2, the binding result is “no binding (tested: 100 nM peptide)”.
For B3, the binding result is reported as “no binding (tested: 100 nM peptide)”.
Still for that read-out and setting: under B4 stands “no binding (tested: 100 nM peptide)”.

Another assay deals with T2, H3K27me3 peptide. Briefly: yeast display, flow cytometry [A]. (In flow cytometry, cells or beads pass a laser one at a time.)
As to B5, the binding result is reported as “no binding (tested: 500 nM)”.
As for B6, the binding result is “no binding (tested: 500 nM)”.
On the same count and under the same terms, under B7 stands “no binding (tested: 500 nM)”; under B8, “no binding (tested: 500 nM)”.

For a further assay, the target named is T1, H3K4me3 peptide. Kind of assay: yeast display, flow cytometry [A].
Consider B5, for which the binding result is “no binding (tested: 500 nM)”.
On the same count and under the same terms, to B6 belongs “no binding (tested: 500 nM)”; to B7, “no binding (tested: 500 nM)”; to B8, “no binding (tested: 500 nM)”.

A further assay has as its target T3, H4K20me3 peptide. Kind of assay: phage ELISA [B].
With B9, the binding result is recorded as “no binding (tested: 100 nM peptide)”.
